The assay has as its target FGF receptor on COS cells. In words: cell-based or functional assay.

Substance “FGF2 display phage MF2/1G3 (FGF2-pIII fusion on M13 type 3 phage) (from UniProt P09038 2-155; P69168 19-424)” gave a transduction efficiency (GFP positive autofluorescent COS cells) against control phage MEGFP3 of 10 fold.

“free FGF2 (non-biotinylated) (from UniProt P09038 2-155) (ligand)” showed a phagemid particle-dependent transfection of COS-1 cells (fold molar excess) of 100.

The values above are taken from patent publication US7148202.
